± gives the uncertainty stated by the source.
Assay: self-splicing fitness, log relative to wild type (ln ratio); higher = more splicing; Tetrahymena group I intron in knt gene, E. coli kanamycin selection, DiMSum; sequences stand for … in CUCUCU…GGAGGGAAAAGUUAUCAGGCAUGCACCUGGUAGCUAGUCUUUAAACCAAUAGAUUGCAUCGGUUUAAAAGGCAAGACCGUCAAAUUGCGGGAAAGGGGUCAACAGCCGUUCAGUACCAAGUCUCAGGGGAAACUUUGAGAUGGCCUUGCAAAGGGUAUGGUAAUAAGCUGACGGACAUGGUCCUAACCACGCAGCCAAGUCCUAAGUCAACAGAUCUUCUGUUGAUAUGGAUGCAGUUCACAGACUAAAUGUCGGUCGGGGAAGAUGUAUUCUUCUCAUAAGAUAUAGUCGGACCUCUCCUUAAUGGGAGCUAGCGGAUGAAGUGAUGCAACACUGGAGCCGCUGGGAACUAAUUUGUAUGCGAAAGUAUAUUGAUUAGUUUUGGAGUACUCGUGGUCG
Summary of the method: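 Six replicate transformations of E. coli BL21(DE3) with a pET-22b(+) library were grown overnight at 37°C or 30°C. The library randomised all eight P1ex-region intron nucleotides, the intron lying in the knt kanamycin-resistance gene, and plates were LB agar with or without 25 μg/mL kanamycin plus 100 μg/mL carbenicillin, 50 μM IPTG and 0.2% rhamnose. Pooled colonies were amplicon-sequenced on an Illumina HiSeq 2500, and fitness is the DiMSum error-weighted combination of wild-type-normalised replicate fold changes, kanamycin versus none.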

Sequence | self-splicing fitness (ln) (30 °C) | self-splicing fitness (ln) (37 °C)
GUUUAGCAAUAUUACGUCAU | -0.998 ± 0.069 | -0.817 ± 0.099
UAUUAGCAAUAUUACGGCGC | -1.74 ± 0.13 | -0.453 ± 0.17
UAAUAGCAAUAUUACGAGAU | -4.03 ± 0.43 | -2.38 ± 0.47
UCCCAGCAAUAUUACGAGGG | -3.14 ± 0.17 | -3.02 ± 0.21
UAUUAGCAAUAUUACGGCAU | -1.99 ± 0.16 | -0.541 ± 0.12
AGCCAGCAAUAUUACGAUCG | -3.74 ± 0.26 | -1.69 ± 0.15
AUUCAGCAAUAUUACGACCG | 0.174 ± 0.18 | -0.187 ± 0.27
UCUUAGCAAUAUUACGUCGG | -0.815 ± 0.21 | -0.0675 ± 0.2
ACUUAGCAAUAUUACGUAAA | -2.37 ± 0.2 | -0.419 ± 0.2
AUGCAGCAAUAUUACGUGUG | -2.45 ± 0.071 | -1.44 ± 0.085
UCACAGCAAUAUUACGAGUG | -2.04 ± 0.09 | -0.607 ± 0.09
CCCUAGCAAUAUUACGCAAA | -3.13 ± 0.24 | -3.49 ± 0.42
ACCAAGCAAUAUUACGCAUG | -3.75 ± 0.11 | -2.2 ± 0.11
AACAAGCAAUAUUACGGUCC | -1.36 ± 0.063 | -0.282 ± 0.072
GAAAAGCAAUAUUACGAGAU | -3.26 ± 0.26 | -2.08 ± 0.28
CAUGAGCAAUAUUACGCGGA | -2.6 ± 0.2 | -1.64 ± 0.17
UUACAGCAAUAUUACGACGA | -0.196 ± 0.077 | 0.136 ± 0.12
CGGAAGCAAUAUUACGCCGU | -2.88 ± 0.44 | -1.91 ± 0.28
CCGUAGCAAUAUUACGCAGU | -2.54 ± 0.18 | -2.6 ± 0.27
AAGAAGCAAUAUUACGCAUU | -2.89 ± 0.21 | -1.52 ± 0.21
AAGGAGCAAUAUUACGACGG | – | -0.954 ± 0.16
ACUAAGCAAUAUUACGGAGC | -2.87 ± 0.17 | -0.628 ± 0.14
UGCAAGCAAUAUUACGGAUA | -1.68 ± 0.11 | -0.698 ± 0.12
GCUAAGCAAUAUUACGCCCU | -0.606 ± 0.19 | -0.768 ± 0.15
UCAUAGCAAUAUUACGCCUG | -0.427 ± 0.085 | -0.133 ± 0.11

Sequence | self-splicing fitness (ln) (30 °C) | self-splicing fitness (ln) (37 °C)
CCCAAGCAAUAUUACGGUCA | -2.13 ± 0.12 | -2.22 ± 0.14
UCAUAGCAAUAUUACGUAGG | -1.08 ± 0.074 | -1.56 ± 0.096
CGUUAGCAAUAUUACGCGAA | -3.36 ± 0.41 | -3.1 ± 0.43
GACAAGCAAUAUUACGGGUG | -0.472 ± 0.065 | -0.733 ± 0.081
GUGGAGCAAUAUUACGCGUG | -2.88 ± 0.37 | -1.77 ± 0.3
UCGCAGCAAUAUUACGAAUU | -4.07 ± 0.34 | -2.75 ± 0.17
UCCUAGCAAUAUUACGAACA | -2.9 ± 0.29 | -1.3 ± 0.22
GGCCAGCAAUAUUACGGAGC | -2.25 ± 0.18 | -0.92 ± 0.21
AGUUAGCAAUAUUACGGGCG | -0.303 ± 0.16 | -0.0474 ± 0.17
GAACAGCAAUAUUACGCCAC | -3.15 ± 0.22 | –
AAGAAGCAAUAUUACGCCCU | 0.319 ± 0.11 | 0.0852 ± 0.12
AUACAGCAAUAUUACGGGAC | -2.14 ± 0.15 | -1.74 ± 0.17
GGAUAGCAAUAUUACGCCGA | -0.933 ± 0.13 | -0.0698 ± 0.14
CGCUAGCAAUAUUACGCUUC | -2.39 ± 0.28 | -2.39 ± 0.39
AGUGAGCAAUAUUACGAUGG | -3.11 ± 0.24 | -2.26 ± 0.25
GAAUAGCAAUAUUACGUGAU | -3.48 ± 0.17 | -1.27 ± 0.11
CCUAAGCAAUAUUACGUCAC | – | -1.54 ± 0.49
CUCAAGCAAUAUUACGGCCG | -1.2 ± 0.13 | -1.69 ± 0.24
GGGCAGCAAUAUUACGCUAA | -0.45 ± 0.087 | 0.361 ± 0.14
UCAGAGCAAUAUUACGGCGG | -1.41 ± 0.13 | 0.0537 ± 0.13
UAUUAGCAAUAUUACGGGGU | – | -1.52 ± 0.38
CACCAGCAAUAUUACGGUAU | -2.42 ± 0.072 | -1.03 ± 0.067
CGCAAGCAAUAUUACGUACA | -2.03 ± 0.11 | -0.56 ± 0.085
GAAGAGCAAUAUUACGAAUA | – | -1.63 ± 0.35
UGUUAGCAAUAUUACGGGUG | -0.781 ± 0.071 | -0.441 ± 0.086

Sequence | self-splicing fitness (ln) (30 °C) | self-splicing fitness (ln) (37 °C)
AAGAAGCAAUAUUACGUACU | 0.124 ± 0.082 | 0.141 ± 0.099
AUUAAGCAAUAUUACGUAAC | -2.12 ± 0.12 | -1.88 ± 0.14
CCUCAGCAAUAUUACGCCGC | -3.72 ± 0.37 | –
ACGCAGCAAUAUUACGGUUA | -1.13 ± 0.077 | -1.04 ± 0.062
CGUAAGCAAUAUUACGGCAU | -3.27 ± 0.27 | -2.37 ± 0.15
GCCGAGCAAUAUUACGAAUU | -2.59 ± 0.11 | -2.21 ± 0.15
UACAAGCAAUAUUACGCUGG | -2.54 ± 0.15 | -1.87 ± 0.15
UGCAAGCAAUAUUACGAUAU | -3.42 ± 0.2 | -0.49 ± 0.1
AGAGAGCAAUAUUACGCGUU | -2.09 ± 0.4 | –
GCCGAGCAAUAUUACGAUGA | -2.38 ± 0.12 | -1.28 ± 0.1
UUUAAGCAAUAUUACGGUAC | -2.22 ± 0.28 | –
GCCCAGCAAUAUUACGGGUC | -4.06 ± 0.15 | -2.4 ± 0.16
GCGAAGCAAUAUUACGCAUG | -3.12 ± 0.44 | -2.76 ± 0.24
GAUGAGCAAUAUUACGAUAG | -3.33 ± 0.16 | -2.42 ± 0.17
CGAAAGCAAUAUUACGGAUC | -2.95 ± 0.16 | -2.02 ± 0.15
GGAAAGCAAUAUUACGACUA | -0.62 ± 0.12 | -0.129 ± 0.12
GACUAGCAAUAUUACGCCCU | -9.77e-06 ± 0.2 | -0.315 ± 0.21
GCCCAGCAAUAUUACGAACG | -1.79 ± 0.32 | -0.725 ± 0.34
CUCGAGCAAUAUUACGCUAU | -2.92 ± 0.26 | -2.8 ± 0.26
GCGCAGCAAUAUUACGGAAU | -1.12 ± 0.13 | -0.337 ± 0.15
AUGGAGCAAUAUUACGUGAG | -2.31 ± 0.14 | -2.09 ± 0.15
CCACAGCAAUAUUACGGCAG | -1.16 ± 0.072 | -0.579 ± 0.085
UGUCAGCAAUAUUACGGGCG | -1.71 ± 0.093 | -1.26 ± 0.12
GAAAAGCAAUAUUACGGCCC | 0.0394 ± 0.14 | 0.473 ± 0.17
CUGAAGCAAUAUUACGCUGG | -3.37 ± 0.33 | -2.3 ± 0.34

Sequence | self-splicing fitness (ln) (30 °C) | self-splicing fitness (ln) (37 °C)
GACCAGCAAUAUUACGCACU | -0.104 ± 0.06 | 0.195 ± 0.079
ACUCAGCAAUAUUACGUUUG | -2.36 ± 0.095 | -1.94 ± 0.14
CUUAAGCAAUAUUACGGGGU | -3.09 ± 0.15 | -3.33 ± 0.29
CCGUAGCAAUAUUACGUACU | – | -2.03 ± 0.32
CAAAAGCAAUAUUACGGCGU | -1.23 ± 0.069 | -0.3 ± 0.086
GAUCAGCAAUAUUACGGAAA | -1.01 ± 0.16 | -0.212 ± 0.17
CAAUAGCAAUAUUACGUAGU | -3.31 ± 0.29 | -2.44 ± 0.22
CACUAGCAAUAUUACGGGGG | -2.43 ± 0.18 | -1.5 ± 0.17
AAAGAGCAAUAUUACGUUGU | -3.11 ± 0.13 | -2.51 ± 0.2
CCCCAGCAAUAUUACGCUUU | -4.4 ± 0.25 | -3.36 ± 0.21
AAAUAGCAAUAUUACGAGGA | -2.72 ± 0.19 | -1.88 ± 0.18
AUUAAGCAAUAUUACGGAAU | -1.3 ± 0.14 | -1.3 ± 0.18
UGCCAGCAAUAUUACGCAUA | -1.67 ± 0.088 | -1.26 ± 0.087
GUUAAGCAAUAUUACGCGCG | -0.983 ± 0.09 | 0.0623 ± 0.14
UACGAGCAAUAUUACGGCUA | 0.411 ± 0.22 | 0.683 ± 0.23
UCGAAGCAAUAUUACGUGUA | -2.47 ± 0.17 | -1.71 ± 0.18
UUGGAGCAAUAUUACGUCUA | -1.99 ± 0.34 | -2.49 ± 0.3
CAAAAGCAAUAUUACGAGAG | -2.79 ± 0.1 | -2.34 ± 0.11
ACAUAGCAAUAUUACGUUGG | -3.23 ± 0.2 | -2.29 ± 0.14
ACCUAGCAAUAUUACGUGAA | -2.1 ± 0.097 | -1.18 ± 0.12
AUGAAGCAAUAUUACGUAUG | -1.78 ± 0.082 | -1.26 ± 0.098
AAACAGCAAUAUUACGUUCU | -0.831 ± 0.061 | -0.0204 ± 0.077
GUAUAGCAAUAUUACGGCAU | -0.587 ± 0.081 | -0.661 ± 0.1

Source: the supplement of paper PMC7877785
